Data on three molecules can be found in article PMC5327412, “Characterization of the CD177 interaction with the ANCA antigen proteinase 3” (Scientific Reports, 2017).

Usually Kd stands for the constant that tells how readily two partners part at equilibrium.

This experiment deals with T1, recombinant CD177 (UniProt Q8N6Q3 22-408).
T1 construct: CD177, GPI-anchored neutrophil membrane receptor; recombinant soluble form that lacks the C-terminal GPI-anchor domain; secreted via an N-terminal Ig1 secretion signal peptide; Made from plasmid pTT5; also called rCD177; not shown: Fc (human Ig1), C-terminal, cleaved
T1 sequence (looked up): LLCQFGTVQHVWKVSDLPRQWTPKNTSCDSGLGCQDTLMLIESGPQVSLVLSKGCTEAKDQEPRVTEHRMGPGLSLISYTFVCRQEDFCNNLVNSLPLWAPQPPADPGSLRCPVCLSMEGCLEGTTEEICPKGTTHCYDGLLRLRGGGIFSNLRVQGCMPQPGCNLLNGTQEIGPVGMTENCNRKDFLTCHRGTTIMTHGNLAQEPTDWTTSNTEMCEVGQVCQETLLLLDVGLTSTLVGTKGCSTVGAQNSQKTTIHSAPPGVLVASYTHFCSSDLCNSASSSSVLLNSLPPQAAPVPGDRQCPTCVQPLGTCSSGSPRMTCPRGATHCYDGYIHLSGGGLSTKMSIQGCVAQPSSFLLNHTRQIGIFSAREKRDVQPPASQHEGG
The experiment can be described thus: SPR; CD177 immobilised on a GLH sensor chip by standard amine chemistry, PR3 as soluble analyte; ProteOn XPR36. Background: SPR reads the build-up and loss of mass on a sensor chip optically.

Like-named read-outs stand apart in the source and are kept apart here.

As for recombinant PR3 (enzyme), the Kd stood at 4.1 nM.

For “monomeric PR3 hydrophobic patch mutant (Ile217Ala, Trp218Ala) (enzyme)”, the Kd came to 57 nM.

B1: neutrophil-derived PR3 (enzyme, UniProt P24158 28-248, looked up)
chain: IVGGHEAQPHSRPYMASLQMRGNPGSHFCGGTLIHPSFVLTAAHCLRDIPQRLVNVVLGAHNVRTQEPTQQHFSVAQVFLNNYDAENKLNDVLLIQLSSPANLSASVATVQLPQQDQPVPHGTQCLAMGWGRVGAHDPPAQVLQELNVTVVTFFCRPHNICTFVPRRKAGICFGDSGGPLICDGIIQGIDSFVIWGCATRLFPDFFTRVALYVDWIRSTLR
notes: Proteinase 3 (PR3), neutrophil serine protease, purified from neutrophils, proteolytically active; also called nPR3; proteinase 3; source: bought: Athens Research&Technology; neutrophil-derived
For the molecule B1, under “both partners purified”, the Kd came out at 4.1 nM.
